{
  "source": "patent US20030119027",
  "molecular_target": "T1, SfiI (Streptomyces fimbriatus) (UniProt O52512)",
  "T1 sequence": "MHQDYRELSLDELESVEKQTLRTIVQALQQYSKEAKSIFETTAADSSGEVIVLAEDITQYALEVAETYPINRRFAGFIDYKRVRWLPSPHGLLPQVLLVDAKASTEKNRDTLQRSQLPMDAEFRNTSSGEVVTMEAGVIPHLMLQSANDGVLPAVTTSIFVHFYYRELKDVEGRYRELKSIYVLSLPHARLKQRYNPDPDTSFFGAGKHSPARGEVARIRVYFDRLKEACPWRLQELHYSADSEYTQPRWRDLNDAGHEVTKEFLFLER",
  "assay": "cleavage_in_vitro",
  "conditions": "yield of in vitro translation with T7 RNA polymerase; NEBuffer 2, 10 mM MgCl2, 50 C 60 min",
  "data": [
    {"sequence": "GGCCNNNNNGGCC (double strand) [SfiI site (Adenovirus-2 DNA)]", "values": [
      {"measurement": "activity", "value": "> 33000", "unit": "units/ml"}
    ]}
  ]
}
